These are literature values, as cited in publication PMC5081098.

The target of this series is CCL21 (Homo sapiens) (UniProt O00585).
Chain of UniProt O00585 (O00585 24-134): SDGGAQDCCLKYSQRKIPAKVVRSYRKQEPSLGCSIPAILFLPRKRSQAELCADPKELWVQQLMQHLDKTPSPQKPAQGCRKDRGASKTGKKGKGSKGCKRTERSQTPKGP

One may read the Kd as the constant that tells how readily two partners part at equilibrium. podoplanin (from UniProt Q86YL7): the Kd was 70 nM.
